Literature values as cited in article PMC6431256.

Biological target: tau peptide (Homo sapiens) (UniProt P10636)
Experiment: ITC

tau peptide (Homo sapiens), sequence (P10636 2-758): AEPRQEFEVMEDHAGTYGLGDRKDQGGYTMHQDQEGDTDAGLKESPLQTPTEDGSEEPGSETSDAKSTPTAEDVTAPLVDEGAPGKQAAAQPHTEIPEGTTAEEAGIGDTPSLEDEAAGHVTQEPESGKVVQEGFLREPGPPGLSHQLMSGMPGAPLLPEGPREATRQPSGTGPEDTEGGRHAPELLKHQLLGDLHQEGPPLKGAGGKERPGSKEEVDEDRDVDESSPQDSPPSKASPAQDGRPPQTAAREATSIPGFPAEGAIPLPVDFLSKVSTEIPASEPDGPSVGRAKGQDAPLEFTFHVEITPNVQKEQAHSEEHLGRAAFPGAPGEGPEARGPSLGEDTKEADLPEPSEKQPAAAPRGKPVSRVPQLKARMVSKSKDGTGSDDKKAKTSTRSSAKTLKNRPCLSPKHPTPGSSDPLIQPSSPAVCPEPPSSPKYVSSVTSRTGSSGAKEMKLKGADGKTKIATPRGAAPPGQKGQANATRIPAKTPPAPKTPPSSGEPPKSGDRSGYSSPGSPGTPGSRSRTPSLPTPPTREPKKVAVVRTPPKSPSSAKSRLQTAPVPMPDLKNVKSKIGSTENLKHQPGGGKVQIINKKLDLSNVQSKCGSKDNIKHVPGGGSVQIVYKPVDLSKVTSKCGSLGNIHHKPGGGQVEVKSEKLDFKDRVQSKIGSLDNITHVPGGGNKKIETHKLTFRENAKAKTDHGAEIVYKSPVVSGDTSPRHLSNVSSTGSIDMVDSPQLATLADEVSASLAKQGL
Pin1, sequence (Q13526 whole entry): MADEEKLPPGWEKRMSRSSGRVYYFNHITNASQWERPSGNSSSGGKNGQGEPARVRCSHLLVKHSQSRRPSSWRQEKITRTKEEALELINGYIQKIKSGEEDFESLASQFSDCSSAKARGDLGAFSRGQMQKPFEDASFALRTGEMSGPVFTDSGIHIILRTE

With Pin1 (from UniProt Q13526) as the substance, how does the Kd read?
Its Kd is 200 µM.
